Assay results from US20040091953.

Tests used:
[1] = target: other hSIRT3 mutants targeting arginine residues at positions 133, 135, 139 and 158
[2] = target: fusion protein between subunit 9 of F0/F1-ATPase and DHFR
[3] = target: T1, hSIRT3R99/100G-FLAG
T1 chain: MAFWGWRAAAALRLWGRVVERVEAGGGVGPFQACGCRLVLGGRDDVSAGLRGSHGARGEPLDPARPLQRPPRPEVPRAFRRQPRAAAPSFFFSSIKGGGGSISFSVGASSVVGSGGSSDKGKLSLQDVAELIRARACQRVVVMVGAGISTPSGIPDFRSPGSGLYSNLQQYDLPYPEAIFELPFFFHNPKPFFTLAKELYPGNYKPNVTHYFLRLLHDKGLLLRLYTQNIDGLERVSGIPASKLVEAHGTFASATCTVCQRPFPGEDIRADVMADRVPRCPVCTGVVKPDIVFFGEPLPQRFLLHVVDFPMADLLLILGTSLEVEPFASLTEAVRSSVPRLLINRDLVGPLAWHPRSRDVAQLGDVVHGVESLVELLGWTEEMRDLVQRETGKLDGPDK

[4] = target: T2, hSIRT3-FLAG, full-length 44 kDa form
T2 chain: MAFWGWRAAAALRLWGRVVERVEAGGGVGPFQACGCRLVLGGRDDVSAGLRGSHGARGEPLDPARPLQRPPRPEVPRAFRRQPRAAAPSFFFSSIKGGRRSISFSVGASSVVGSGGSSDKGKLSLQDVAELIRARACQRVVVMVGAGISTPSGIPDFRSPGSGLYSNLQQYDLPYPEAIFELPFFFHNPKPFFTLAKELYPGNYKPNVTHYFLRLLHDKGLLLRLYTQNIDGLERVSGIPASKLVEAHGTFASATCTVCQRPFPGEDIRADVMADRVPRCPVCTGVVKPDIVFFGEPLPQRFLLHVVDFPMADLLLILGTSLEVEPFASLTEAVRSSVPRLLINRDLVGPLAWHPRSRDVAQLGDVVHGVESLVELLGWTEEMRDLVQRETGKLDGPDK

B1: purified recombinant yeast MPP (protein)
chain 1: ARTDNFKLSSLANGLKVATSNTPGHFSALGLYIDAGSRFEGRNLKGCTHILDRLAFKSTEHVEGRAMAETLELLGGNYQCTSSRENLMYQASVFNQDVGKMLQLMSETVRFPKITEQELQEQKLSAEYEIDEVWMKPELVLPELLHTAAYSGETLGSPLICPRELIPSISKYYLLDYRNKFYTPENTVAAFVGVPHEKALELTEKYLGDWQSTHPPITKKVAQYTGGESCIPPAPVFGNLPELFHIQIGFEGLPIDHPDIYALATLQTLLGGGGSFSAGGPGKGMYSRLYTHVLNQYYFVENCVAFNHSYSDSGIFGISLSCIPQAAPQAVEVIAQQMYNTFANKDLRLTEDEVSRAKNQLKSSLLMNLESKLVELEDMGRQVLMHGRKIPVNEMISKIEDLKPDDISRVAEMIFTGNVNNAGNGKGRATVVMQGDRGSFGDVENVLKAYGLGNSSSSKNDSPKKKGWF
chain 2: SQIPGTRTSKLPNGLTIATEYIPNTSSATVGIFVDAGSRAENVKNNGTAHFLEHLAFKGTQNRSQQGIELEIENIGSHLNAYTSRENTVYYAKSLQEDIPKAVDILSDILTKSVLDNSAIERERDVIIRESEEVDKMYDEVVFDHLHEITYKDQPLGRTILGPIKNIKSITRTDLKDYITKNYKGDRMVLAGAGAVDHEKLVQYAQKYFGHVPKSESPVPLGSPRGPLPVFCRGERFIKENTLPTTHIAIALEGVSWSAPDYFVALATQAIVGNWDRAIGTGTNSPSPLAVAASQNGSLANSYMSFSTSYADSGLWGMYIVTDSNEHNVQLIVNEILKEWKRIKSGKISDAEVNRAKAQLKAALLLSLDGSTAIVEDIGRQVVTTGKRLSPEEVFEQVDKITKDDIIMWANYRLQNKPVSMVALGNTSTVPNVSYIEEKLNQ
cleavage by MPP in vitro [1]: other mutants were unaffected
cleavage by MPP in vitro [2]: resulted in the appearance of digestion products similar to what has been previously reported
cleavage by MPP in vitro [3]: showed abrogation of cleavage by MPP in vitro
cleavage by MPP in vitro [4]: led to its cleavage to a product of ˜28 KDa
